Source: patent US20240398942A1, “USE OF ANTI-CD40 ANTIBODY” (CHIA TAI TIANQING PHARMACEUTICAL GROUP CO., LTD., priority 2021, published 2024)
Where “and” joins values, the source holds several entries; their conditions need not be identical. Equal values may be shown once. Read-outs that look alike come from different tables or passages of the source.

What was measured:
Human CD40-his = target: T1, Human CD40-his (Homo sapiens, UniProt P25942); test: Octet kinetics of humanized C1H1 antibodies; format: binding; conditions: Table 3, Octet; for Ka: humanized antibodies in cell supernatant, chimeric and benchmark 5 μg/mL
T1 construct: His; purchased Acro biosystems CD0-H5228
Protocol: After six days of culture in a shake flask, the cell supernatant containing the humanized antibodies huC1H1-V1 to huC1H1-V4 was harvested and the binding affinity of the antibodies to human CD40 was determined on an Octet system (Fortebio, Octet RED 96) according to the following procedures. Briefly, an anti-human IgG Fc capture (AHC) biosensor (from ForteBio) was pre-soaked in a 10 mM glycine solution (pH 1.5) for 3 s, and then soaked in a running buffer (PBST containing 0.5% w/v of BSA) for 3 s. The pre-soaking and soaking procedures were repeated 3 times. Then, the sensor was soaked in the cell supernatant containing the humanized anti-CD40 antibody, chimeric antibody C1H1 dissolved in HBS-EP^+ buffer at a concentration of 5 μg/mL, or the benchmark dissolved in HBS-EP^+ buffer at a concentration of 5 μg/mL for 120 s, and then soaked in the running buffer for 5 min. The new baseline was run in the running buffer for 180 s. The sensor was then soaked for 120 s in human CD40-his protein (Acro biosystems, Cat. No. CD0-H5228) 2-fold serially diluted from 40 nM in the running buffer and for 10 min in the running buffer […]. Finally, the sensor was pre-soaked in a 10 mM glycine solution (pH 1.5) for 3 s, and then soaked in the running buffer for 3 s. The pre-soaking and soaking procedures were repeated 3 times. The association and dissociation curves were fitted to a 1:1 Langmuir binding model using ForteBio Data Analysis 8.1.

[1] = target: binding of the benchmark (BM2) to human CD40 (Homo sapiens, UniProt P25942); test: Benchmark blocking competitive ELISA; conditions: in words, FIG. 6
Protocol: The ability of the anti-CD40 antibody of the present application to block the binding of the benchmark to human CD40 was determined by competitive ELISA. Briefly, BM2 antibody was immobilized on a 96-well micro plates at 1 μg/mL in PBS, 100 µL/well, and incubated overnight at 4° C. The next day, the plate was washed once with a washing buffer before a blocking buffer (PBST containing 5% w/v of skim milk) was added. The plate was then incubated at 37° C. for 2 h for blocking. During the blocking of the 96-well plate, the anti-CD40 antibody of the present application or the benchmark was serially 5-fold diluted from 66.7 nM with a biotinylated human CD40-Fc protein (amino acid residues 21-193 of SEQ ID NO: 30 linked to the N terminus of amino acid residues 99-330 of SEQ ID NO: 28, dissolved in PBST containing 2.5% w/v of skim milk at a concentration of 0.23 nM) and then incubated at room temperature for 40 min. After the plate was washed 4 times, the antibody/biotinylated human CD40-Fc mixture was added at 100 μL/well to the plate coated with BM2. The plate was incubated at 37° C. for 40 min and again washed 4 times with the washing buffer. […] The absorbance was read on a microplate reader using the dual wavelength mode (TMB detection wavelength: 450 nm, reference wavelength: 630 nm). […] Data were analyzed using Graphpad Prism software, and IC50 values were obtained.

[2] = test system: mouse colon carcinoma MC38 cells; test: In vivo anti-tumor efficacy, colon carcinoma MC38 xenograft model; conditions: for Tumor volume on day 0: baseline at grouping; for Tumor volume on day 0 / Tumor volume on day 14: mean ± standard error; for T/C: TRTV/CRTV, day 14 vs solvent; for TGI: day 14
Protocol: The in vivo anti-tumor activity of antibody huC1H1-V2 was further determined in humanized CD40 transgenic mice (also referred to as hCD40 mice). Briefly, 1×10^6 mouse colon carcinoma MC38 cells (Shanghai Lanli Biotech, LTD., CO.) were injected subcutaneously on the right back of hCD40 mice. The tumor volume was measured using an electronic vernier caliper and calculated according to the formula (length×width^2)/2. When the mean tumor volume reached about 100 mm^3, 18 tumor-bearing mice were selected and randomly divided into 3 groups (6 mice per group), with the date of grouping designated as day 0. According to the administration regimen shown in Table 8, the mice were intravenously administered with the solvent (phosphate buffered saline, or PBS) or antibody huC1H1-V2 via tail veins since day 1.

[3] = test system: human B-cell lymphoma Ramos cells; test: Efficacy of anti-CD40 antibody and anlotinib, Ramos subcutaneous xenograft mouse model; format: in vivo
Protocol: Human B-cell lymphoma Ramos cells (purchased from the Cell Bank of the Chinese Academy of Sciences) were cultured in an RPMI1640 medium containing 10% of fetal bovine serum and penicillin-streptomycin. The cells were inoculated in a 37° C./5% CO2 incubator until the logarithmic growth phase and collected for grafting.
The mice used in this study were NOD-Scid mice (purchased from Shanghai Lingchang Biotechnology Co., Ltd.) aged about 6 weeks and bred in specific pathogen-free conditions in 12/12-hour light/dark cycles. The health status of the animals was monitored daily.
Each mouse was inoculated subcutaneously with 1×10^7 Ramos cells. When the tumor grew to 80-100 mm^3, the mice were divided into groups of 10 according to the tumor volume. The administration regimen is shown in Table 10, with the first dosing day designated as DO. Antibody huC1H1-V2 and IgG2 (Biointron, Cat. No. B107803) were both formulated to desired concentrations with normal saline, and anlotinib dihydrochloride was formulated at desired concentrations with distilled water. At the end of study (D14), the animals were sacrificed by CO2 anesthesia and dissected to give the tumors. The tumors were photographed.
The tumor diameters were measured twice weekly with a vernier caliper. Tumor volume (V)=½×a×b^2, wherein a and b denote length and width, respectively; T/C (%)=(T−T0)/(C−C0)×100, wherein T and C refer to the tumor volumes of the treatment group and the IgG2 control group on day 14, respectively, and TO and C0 refer to the tumor volumes of the treatment group and IgG2 control group on day 0, respectively; the tumor growth inhibition % (TGI %)=100−T/C (%). When the tumor regressed, the tumor growth inhibition % (TGI %)=100−(T−T0)/T0×100. If the tumor volume was smaller than the initial volume, i.e., T<T0 or C<C0, the outcome was defined as partial regression (PR); if the tumors completely disappeared, i.e., the outcome was defined as complete regression (CR).

T1 sequence (P25942 21-277): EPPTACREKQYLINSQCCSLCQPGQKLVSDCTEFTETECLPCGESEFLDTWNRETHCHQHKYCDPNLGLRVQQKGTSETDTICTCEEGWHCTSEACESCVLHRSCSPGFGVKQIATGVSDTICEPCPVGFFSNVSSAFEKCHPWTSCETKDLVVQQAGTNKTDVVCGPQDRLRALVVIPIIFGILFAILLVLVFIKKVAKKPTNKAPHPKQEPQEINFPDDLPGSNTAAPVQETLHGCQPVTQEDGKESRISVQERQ
Chain of binding of the benchmark (BM2) to human CD40 (P25942 21-193): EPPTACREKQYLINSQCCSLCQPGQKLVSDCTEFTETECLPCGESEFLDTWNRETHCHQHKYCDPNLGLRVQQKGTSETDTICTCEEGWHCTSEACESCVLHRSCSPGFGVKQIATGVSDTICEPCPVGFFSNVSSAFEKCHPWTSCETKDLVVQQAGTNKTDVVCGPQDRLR

B1: huC1H1-V1: humanized C1H1 anti-CD40 antibody, VH SEQ ID NO: 20 X1=A, VL SEQ ID NO: 24 X1=K X2=F, human IgG2/κ (antibody, V domains shown)
VH: EVQLVESGGGLVKPGGSLRLSCAASGFTFSNYGISWVRQAPGKGLEWVXSISSGGDNTYYPDNVKGRFTISRDNAKNSLYLQMNSLRAEDTAVYYCARAGEKAMDYWGQGTLVTVSS
VL: EIVLTQSPATLSLSPGERATLSCRASQTINNNLHWYQQKPGQAPRLLIXYASQSISGIPARFSGSGSGTDFTLTISSLEPEDFAVYXCQQFSSWPLTFGGGTKVEIK
modifications: not fully specified; human IgG2/kappa constant regions; VH of huC1H1-V1 to huC1H1-V4; VARIANT 49 X can be A or S; VL of huC1H1-V1 to huC1H1-V4; VARIANT 49 X can be K or Y; VARIANT 87 X can be F or Y
Kd (Human CD40-his; dissociation rate): 0.00128 s⁻¹ | Ka (Human CD40-his): 1.41e+06 M⁻¹ s⁻¹ | Kd (Human CD40-his; read-out: KD): 0.904 nM | Blocking of the binding of human CD40 to BM2 [1]: able to block the binding of human CD40 to BM2

B2: huC1H1-V2: humanized C1H1 anti-CD40 antibody, VH SEQ ID NO: 20 X1=S, VL SEQ ID NO: 24 X1=K X2=F, human IgG2/κ (antibody, V domains shown)
VH: EVQLVESGGGLVKPGGSLRLSCAASGFTFSNYGISWVRQAPGKGLEWVXSISSGGDNTYYPDNVKGRFTISRDNAKNSLYLQMNSLRAEDTAVYYCARAGEKAMDYWGQGTLVTVSS
VL: EIVLTQSPATLSLSPGERATLSCRASQTINNNLHWYQQKPGQAPRLLIXYASQSISGIPARFSGSGSGTDFTLTISSLEPEDFAVYXCQQFSSWPLTFGGGTKVEIK
modifications: not fully specified; variable positions X1=S; VL X1=K X2=F; IgG2/kappa constant; VH of huC1H1-V1 to huC1H1-V4; VARIANT 49 X can be A or S; VL of huC1H1-V1 to huC1H1-V4; VARIANT 49 X can be K or Y; VARIANT 87 X can be F or Y
Kd (Human CD40-his; dissociation rate): 0.000981 s⁻¹ | Ka (Human CD40-his): 1.65e+06 M⁻¹ s⁻¹ | Kd (Human CD40-his; read-out: KD): 0.596 nM | Tumor volume on day 0 ([2]; 3 mg/kg i.v. Q2D × 7 doses): 111 ± 5 mm^3 | Tumor volume on day 14 ([2]; 3 mg/kg i.v. Q2D × 7 doses): 1169 mm^3 and 1169 ± 217** mm^3 | T/C ([2]; 3 mg/kg i.v. Q2D): 36% | TGI ([2]; 3 mg/kg i.v. Q2D): 64% | Tumor volume on day 0 ([2]; 10 mg/kg i.v. Q2D × 7 doses): 113 ± 8 mm^3 | Tumor volume on day 14 ([2]; 10 mg/kg i.v. Q2D × 7 doses): 1446 mm^3 and 1446 ± 467* mm^3 | T/C ([2]; 10 mg/kg i.v. Q2D): 44% | TGI ([2]; 10 mg/kg i.v. Q2D): 56% | Tolerability (weight loss or any symptoms) ([2]; 3 and 10 mg/kg i.v. Q2D × 7 doses, tumor-bearing mice): well tolerated | Mean tumor volume (mean ± SD) D 0 ([3]; baseline, huC1H1-V2 0.5 mg/kg i.p. once every 2 days × 8, anlotinib dihydrochloride 1 mg/kg intragastric daily × 15): 89.3 ± 0.8 mm^3 | Mean tumor volume (mean ± SD) D 14 ([3]; huC1H1-V2 0.5 mg/kg i.p. once every 2 days × 8, anlotinib dihydrochloride 1 mg/kg intragastric daily × 15): 1546.7 ± 198.5 mm^3 | TGI D 14 (tumor growth inhibition rate) ([3]; huC1H1-V2 0.5 mg/kg i.p., anlotinib dihydrochloride 1 mg/kg intragastric): 58% | Tolerability (symptoms such as weight loss) ([3]; huC1H1-V2 0.5 mg/kg i.p., anlotinib dihydrochloride 1 mg/kg intragastric, tumor-bearing mice): well tolerated | T/C D 14 ([3]; vs IgG2 group, huC1H1-V2 0.5 mg/kg i.p., anlotinib dihydrochloride 1 mg/kg intragastric): 42% | Blocking of the binding of human CD40 to BM2 [1]: able to block the binding of human CD40 to BM2
